Reference: paper PMC8010463, “Discovery of a novel lactate dehydrogenase tetramerization domain using epitope mapping and peptides” (The Journal of Biological Chemistry, 2021)

Assays:
tetrameric LDH-5 = tetrameric LDH-5 (Homo sapiens, UniProt P00338); assay: nanoDSF thermal shift of LDH-5 with peptide; type: binding
dimeric LDH-Htr [1] = assay: WaterLOGSY NMR with LDH-Htr; type: binding, human; conditions: LDH-Htr 15 μM; LP-22 400 μM; 50 mM sodium phosphate pH 7.6, 100 mM NaCl, 10% heavy water; 277 K
Protocol: (§1) Human LDH-H (full length and truncated)-6-His proteins for 1D NMR were expressed and purified from E. coli, as described previously. All experiments were performed on an Ascend Avance III 600 MHz system equipped with a broadband cryoprobe (Bruker) following a previously described procedure ([16]).
(§2) For WaterLOGSY NMR studies, samples were prepared in 10% heavy water containing 50 mM sodium phosphate buffer, pH 7.6, and 100 mM NaCl. The concentration of LDHs was ranging from 15 to 20 μM of monomer. Ligand binding was detected using a WaterLOGSY ephogsygpno.2 avance-version sequence with a 1 s mixing time, 4096 scans were collected at 277 K to yield a 16 K points free induction decay. Water signal suppression was achieved using an excitation-sculpting scheme, and a 50 ms spinlock was used to suppress protein background signals.

dimeric LDH-Htr [2] = conditions: LDH-Htr 15 μM; peptide 500 μM; n = 3; 50 mM sodium phosphate, 100 mM NaCl, pH 7.6; stabilization
Protocol: Solutions of proteins (LDH-1, LDH-5, or LDH-Htr) with peptides were evaluated on a Tycho NT.6 device. Evaluations were performed in a 50 mM sodium phosphate and 100 mM NaCl (pH 7.6) buffer. According to standard manufacturer's procedures, samples were poured into capillaries and heated up to 95 °C in 3 min, while following fluorescence emission at 330 and 350 nm. Melting temperatures were extracted from the derivative of the 350/330 nm fluorescence ratios upon increasing temperature.

tetrameric LDH-1 = assay: WaterLOGSY NMR with LDH-1; type: binding, human; conditions: LDH-1 15 μM; LP-22 400 μM; 50 mM sodium phosphate pH 7.6, 100 mM NaCl, 10% heavy water; 277 K
Protocol: as §1, §2

dimeric LDH-Htr [3] = assay: MST, peptide binding to LDH-Htr; set-up: species or system human; conditions: 1.5 s MST on time, n = 3, labeled LDH-Htr 100 nM, 50 mM sodium phosphate pH 7.6, 100 mM NaCl, 0.01% Tween-20, LP-22 value 'estimated'
Protocol: MST measurements were performed on a NanoTemper Monolith NT.115 instrument (NanoTemper Technologies) using red dye–N-Hydroxysuccinimide fluorescent labeling. LDH-Htr purified to homogeneity was labeled with the Monolith red dye–N-Hydroxysuccinimide second-generation labeling dye (NanoTemper Technologies), according to the supplied protocol. Measurements were performed in 50 mM sodium phosphate, pH 7.6, and 100 mM NaCl containing 0.01% Tween-20 in standard-treated capillaries (NanoTemper Technologies). The final concentration of proteins in the assay was 100 nM. Ligands were titrated in 1:1 dilutions following manufacturer's recommendations. Experiments were performed in triplicates using 40% light-emitting diode power, high MST power, laser on time 20 s and laser off time 3 s. Peptides were evaluated for their thermophoretic pattern, and Kds were extracted from raw data at a 1.5 s MST on time following the manufacturer's instructions.

LDH-H variants [4] = assay: nanoDSF thermal denaturation of LDH-H variants; type: physicochemical, human; conditions: for nanoDSF denaturation pattern / Ratio 350/330 nm / Tm: n = 6; for nanoDSF denaturation pattern: in words; for Ratio 350/330 nm: nanoDSF fluorescence emission ratio; for Ratio 350/330 nm / Tm: pH 7.6; for Tm: Tycho NT.6, protein 25 to 65 μM, 50 mM sodium phosphate, 100 mM NaCl, 20% glycerol, mean ± SEM
Protocol: Solutions of proteins (LDH-H, LDH-Htr or variants), stored in a 50 mM sodium phosphate, 100 mM NaCl, and 20% glycerol, pH 7.6, were evaluated on a Tycho NT.6 device (NanoTemper Technologies) using concentrations ranging from 25 to 65 μM.

LDH-H oligomeric state = assay: Mass photometry of LDH-H, LDH-Htr and variants; type: physicochemical, human; conditions: for Oligomeric state in solution: in words; for Molecular weight (main oligomeric state): mean ± SD, one measurement, repeated at least 3 times with similar results, 1 μl of 1 μM stock into 16 μl PBS; for Relative intensity of dimer peak / Molecular weight of dimer peak / Molecular weight of tetramer peak / Relative intensity of tetramer peak: peak label in figure; for Molecular weight of dimer peak: theoretical dimer 78 kDa (LDH-H), 73.2 kDa (LDH-Htr); for Molecular weight of tetramer peak: theoretical tetramer 155 kDa (LDH-H)
Protocol: Protein landing was recorded using a Refeyn OneMP (Refeyn Ltd) MP system by adding 1 μl of the protein stock solution (1 μM) directly into a 16 μl drop of filtered PBS solution. Movies were acquired for 60 s (6.000 frames) with the AcquireMP (version 2.1.1; Refeyn Ltd) software using standard settings. Data were analyzed using default settings on DiscoverMP (version 2.1.1; Refeyn Ltd) ([44]). Contrast-to-mass calibration was performed prior to the experiments using a mix of proteins with molecular weights of 66, 146, 480, and 1048 kDa.

LDH-H variants [5] = assay: Intrinsic tryptophan fluorescence spectra of variants; type: physicochemical, human; conditions: variant 1.3 μM; λexc 286 nm; n = 6; pH 7.6
Protocol: All spectrophotometric experiments were performed with opaque 96-well plates using a Spectramax m2e spectrophotometer (Molecular Devices) following previously described procedures ([16]).
Full tryptophan fluorescence spectra were recorded using an excitation wavelength of 286 nm and recording the emission spectra from 320 to 400 nm at room temperature. The raw fluorescence of each experiment was subtracted to a corresponding control experiment without the protein. […] For dissociation in subunits, increasing amounts of guanidinium hydrochloride ranging from 0.3 to 2 M were put in contact with the studied proteins (1.3 μM), and fluorescence spectra were recorded afterward.

| Molecule | Dependence of LDH destabilization on protein concentration (tetrameric LDH-5; nanoDSF, Fig. S2) | WaterLOGSY saturation transfer with dimeric LDH-Htr (dimeric LDH-Htr [1]) | ΔTm of dimeric LDH-Htr (dimeric LDH-Htr [2]) [°C] | WaterLOGSY saturation transfer with tetrameric LDH-1 (tetrameric LDH-1) | Kd (dimeric LDH-Htr [3]) [µM] | EC50 (tetrameric LDH-5; read-out: EC50 (destabilization of tetrameric LDH, ΔTm vs peptide concentration)) [µM] | nanoDSF denaturation pattern (LDH-H variants [4]) | Ratio 350/330 nm (LDH-H variants [4]) | Tm (LDH-H variants [4]; nanoDSF) [°C] | Oligomeric state in solution (LDH-H oligomeric state) | Molecular weight (main oligomeric state) (LDH-H oligomeric state) [kDa] | Relative intensity of dimer peak (LDH-H oligomeric state) [%] | Molecular weight of dimer peak (LDH-H oligomeric state) [kDa] | Molecular weight of tetramer peak (LDH-H oligomeric state) [kDa] | Tryptophan fluorescence intensity compared with LDH-1 (LDH-H variants [5]) | Relative intensity of tetramer peak (LDH-H oligomeric state) [%] | Tm difference versus LDH-Htr (LDH-H variants [4]; nanoDSF, higher than LDH-Htr) [°C] |
| --- | --- | --- | --- | --- | --- | --- | --- | --- | --- | --- | --- | --- | --- | --- | --- | --- | --- |
| CSCC[C@H](NC(=O)[C@H](CCC(=O)O)NC(=O)CNC(=O)[C@H](CCCCN)NC(=O)[C@H](CC(C)C)NC(=O)[C@H](CCCCN)NC(=O)[C@H](CC(=O)O)NC(=O)[C@H](CCC(=O)O)NC(=O)[C@@H](N)CC(C)C)C(=O)N[C@@H](CCSC)C(=O)N[C@@H](CC(=O)O)C(=O)N[C@@H](CC(C)C)C(=O)N[C@@H](CCC(N)=O)C(=O)N[C@@H](Cc1c[nH]cn1)C(=O)NCC(=O)N[C@@H](CO)C(=O)N[C@@H](CC(C)C)C(=O)N[C@@H](Cc1ccccc1)C(=O)N[C@@H](CC(C)C)C(=O)N[C@@H](CCC(N)=O)C(=O)N[C@H](C(=O)N1CCC[C@H]1C(N)=O)[C@@H](C)O [LP-22] | an increasing amount of subunit reverted the effect | undergoes a saturation transfer with dimeric LDH-Htr | 2.8 | not with the tetrameric LDH-1 | 156 |  |  |  |  |  |  |  |  |  |  |  |  |
| Ac-GEMMDLQHGSLFLQTP-NH2 [GP-16] |  |  |  |  | 240 | 262 |  |  |  |  |  |  |  |  |  |  |  |
| E62A: LDH-H recombinant alanine variant |  |  |  |  |  |  | denaturation patterns comparable to dimeric LDH-Htr | 0.95 | 58.9 ± 0.1 | behaving mainly as dimers in solution | 77 ± 18 | 77 | 77 | 145 | decays in fluorescence intensity characteristic of the dimeric forms of LDHs |  |  |
| F72A: LDH-H recombinant alanine variant |  |  |  |  |  |  | denaturation patterns comparable to dimeric LDH-Htr | 0.94 | 53.9 ± 0.1 | behaving mainly as dimers in solution | 70 ± 17 | 79 | 70 | 141 | decays in fluorescence intensity characteristic of the dimeric forms of LDHs | 19 |  |
| L71A: LDH-H recombinant alanine variant |  |  |  |  |  |  | a lower initial ratio and a red shift | 0.90 | 67.1 ± 0.1 | behaving as a mixture of tetramers and dimers | 148 ± 12 | 36 | 72 | 148 |  | 56 | 10 |
